Reference: patent publication US20230357447A1 (JANUX THERAPEUTICS, published 2023)

Assays:
[1] = target: T1, anti-CD28 scFv (VH-linker 1-VL) (biotinylated (site not stated)); test: phage ELISA; biotinylated scFv on neutravidin plate; anti-M13-HRP;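 also: crude clonal phage supernatant added to wells pre-incubated with soluble CD28 protein or only blocking buffer, then washed, bound phage read out with an HRP-linked anti-M13 antibody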
T1 construct: Captured as biotinylated scFv on neutravidin coated plates in the phage ELISA

[2] = target: T1, anti-CD28 scFv (VH-linker 1-VL); test: phage ELISA; scFv wells pre-incubated with soluble CD28 (competitor);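 also: crude clonal phage supernatants added to wells pretreated with soluble CD28 in blocking buffer, bound phage read via HRP-linked anti-M13 antibody, reference wells got blocking buffer only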
Method: Clonal phage were harvested as crude supernatants and screened via standard enzyme linked immunosorbent assays (ELISAs). […] Prior to the addition of clonal phage, wells were incubated with blocking buffer and CD28 soluble protein or blocking buffer alone. Without washing or aspirating, clonal phage supernatants were then added to the wells and incubated for a short time. Wells were then washed followed by detection of bound phage using a horse radish peroxidase conjugated anti-M13 antibody.

T1 sequence (scFv, as listed by the source): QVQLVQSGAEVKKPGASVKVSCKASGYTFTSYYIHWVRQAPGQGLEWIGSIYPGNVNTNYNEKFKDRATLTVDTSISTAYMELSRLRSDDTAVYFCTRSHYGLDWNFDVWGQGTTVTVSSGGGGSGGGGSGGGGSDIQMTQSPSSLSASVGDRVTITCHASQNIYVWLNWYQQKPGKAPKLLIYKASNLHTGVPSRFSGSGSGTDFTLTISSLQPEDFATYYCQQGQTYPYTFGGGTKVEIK

| Binder | CD28 scFv signal [1] | CD28 scFv signal in presence of CD28 [2] |
| --- | --- | --- |
| MDWCPRDRWIDCFN (on phage (pIII fusion)) [Phage-226 clonal phage peptide] | 0.339 | 0.131 |
| MDWCPRDRWSDCFN (on phage (pIII fusion)) [Phage-227 clonal phage peptide] | 0.102 | 0.074 |
| MDWCPRHLWHECYS (on phage (pIII fusion)) [Phage-241 clonal phage peptide] | 2.58 | 0.374 |
| MTWCPTSFWNRCLD (on phage (pIII fusion)) [Phage-233 clonal phage peptide] | 0.392 | 0.405 |
| ITWCHVISGLECWN (on phage (pIII fusion)) [Phage-228 clonal phage peptide] | 0.193 | 0.1 |
| MDWCPRDRWVDCFF (on phage (pIII fusion)) [Phage-223 clonal phage peptide] | 1.58 | 0.14 |
| MDWCPRDRWADCFF (on phage (pIII fusion)) [Phage-225 clonal phage peptide] | 0.392 | 0.089 |
| MDWCPRHLWFECFN (on phage (pIII fusion)) [Phage-293 clonal phage peptide] | 2.49 | 0.171 |
| MDWCPRALWFECFF (on phage (pIII fusion)) [Phage-234 clonal phage peptide] | 2.67 | 0.331 |
| MDWCPRHLWFECFF (on phage (pIII fusion)) [Phage-300 clonal phage peptide] | 2.45 | 0.479 |
| MDWCPIHLWNECFN (on phage (pIII fusion)) [Phage-314 clonal phage peptide] | 2.35 | 0.157 |
| MDWCPRHLWNECFA (on phage (pIII fusion)) [Phage-306 clonal phage peptide] | 2.39 | 0.17 |
| MDWCPRHLWYECFN (on phage (pIII fusion)) [Phage-243 clonal phage peptide] | 2.41 | 0.167 |
| MDWCPRHLWNECFN (on phage (pIII fusion)) [Phage-283 clonal phage peptide] | 2.65 | 0.393 |
| MDWCPKVMWHYCFA (on phage (pIII fusion)) [Phage-250 clonal phage peptide] | 1.14 | 0.252 |
| MDWCPRFMWSECFS (on phage (pIII fusion)) [Phage-251 clonal phage peptide] | 1.01 | 0.137 |
| MDWCPRYLWHVCFN (on phage (pIII fusion)) [Phage-239 clonal phage peptide] | 2.6 | 0.409 |
| MDWCPSYLWHECFF (on phage (pIII fusion)) [Phage-237 clonal phage peptide] | 2.61 | 0.447 |
| MDWCPRYLWHECFS (on phage (pIII fusion)) [Phage-235 clonal phage peptide] | 2.65 | 0.303 |
| MDWCPRDLWTECFS (on phage (pIII fusion)) [Phage-305 clonal phage peptide] | 2.4 | 0.174 |
| MDWCPRTLWHVCFN (on phage (pIII fusion)) [Phage-240 clonal phage peptide] | 2.6 | 0.551 |

| Binder | CD28 scFv signal [1] | CD28 scFv signal in presence of CD28 [2] |
| --- | --- | --- |
| MDWCPRYLWHECFF (on phage (pIII fusion)) [Phage-301 clonal phage peptide] | 2.45 | 0.682 |
| MDWCPRSLWHVCFN (on phage (pIII fusion)) [Phage-258 clonal phage peptide] | 2.41 | 0.238 |
| MDWCPRYLWHVCFD (on phage (pIII fusion)) [Phage-302 clonal phage peptide] | 2.44 | 0.31 |
| MDWCPRHLWHVCFN (on phage (pIII fusion)) [Phage-264 clonal phage peptide] | 2.67 | 0.636 |
| MDWCPRYLWTECFS (on phage (pIII fusion)) [Phage-303 clonal phage peptide] | 2.42 | 0.329 |
| MDWCPRYLWHECFD (on phage (pIII fusion)) [Phage-244 clonal phage peptide] | 2.07 | 0.177 |
| MDWCPRHLWSVCFN (on phage (pIII fusion)) [Phage-255 clonal phage peptide] | 2.65 | 0.825 |
| MDWCPRYLWHVCFY (on phage (pIII fusion)) [Phage-291 clonal phage peptide] | 2.5 | 1.14 |
| MDWCPRNLWHLCFA (on phage (pIII fusion)) [Phage-245 clonal phage peptide] | 1.4 | 0.164 |
| MDWCPRNMWHHCFD (on phage (pIII fusion)) [Phage-248 clonal phage peptide] | 1.6 | 0.524 |
| VPWCQIISGLECLT (on phage (pIII fusion)) [Phage-229 clonal phage peptide] | 0.174 | 0.077 |
| APWCQIISGLECLT (on phage (pIII fusion)) [Phage-230 clonal phage peptide] | 0.169 | 0.078 |
| VPWCLIISGLDCLN (on phage (pIII fusion)) [Phage-231 clonal phage peptide] | 0.107 | 0.09 |
| MDWCARFVGYGCLD (on phage (pIII fusion)) [Phage-232 clonal phage peptide] | 0.065 | 0.074 |
| MDWCPPYLWSECFA (on phage (pIII fusion)) [Phage-238 clonal phage peptide] | 2.6 | 0.234 |
| MDWCPRYLWSECFA (on phage (pIII fusion)) [Phage-254 clonal phage peptide] | 2.71 | 0.513 |
| MDWCPRFMWAECFN (on phage (pIII fusion)) [Phage-247 clonal phage peptide] | 2.6 | 0.341 |
| MDWCPKHLWNKCFN (on phage (pIII fusion)) [Phage-246 clonal phage peptide] | 1.16 | 0.092 |
| MDWCPKHLWTECFA (on phage (pIII fusion)) [Phage-242 clonal phage peptide] | 2.49 | 0.145 |
| MDWCPSDMWAHCYN (on phage (pIII fusion)) [Phage-249 clonal phage peptide] | 1.21 | 0.109 |
